Measured values as given in the supplement of paper PMC10126150.
± gives the standard deviation of the averaged measurements.

System: ATP
Assay: switch fluorescence ratio, 500 uM ATP over buffer (Cy3 cluster intensity, sum of 5 cycles each) (fold (ratio)); higher = stronger signal-on switching upon ATP binding; sequences stand for … in TCGTCGGCAGCGTCAGATGTGTATAAGAGACAGTTTTTTTTTTTTTTTTTTTTTTTTT…TC
Conditions: aptamer strand: ATP DNA aptamer (quencher-CACCTGGGGGAGTATTGCGGAGGAAGG + anchor), 100 nM annealed; ATP concentration: 500 uM
Method in brief: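 The fluorescence ratio divides summed target-cycle Cy3 intensity by summed buffer-cycle Cy3 intensity for each cluster and is averaged per switch-domain sequence. Cy3-labelled switching-strand clusters on a modified Illumina MiSeq flow-cell were annealed to 100 nM quencher-labelled ATP aptamer, then imaged in selection buffer and again after 15 min with 500 uM ATP at 22 °C. Five such cycles were run, with NaOH stripping and re-annealing between them, and clusters outside 100-1000 RFU were excluded.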
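Also: ATP exposure 15 min at 22 °C before imaging.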

| Sequence | switch fluorescence ratio |
| --- | --- |
| GGTTGTGGGC | 0.992 ± 0.019 |
| GGTTGTGGGT | 0.996 ± 0.015 |
| GGTTGTTCTG | 0.997 ± 0.015 |
| GGTTGTTTCT | 0.997 ± 0.0057 |
| GGTTTAAAAA | 0.969 ± 0.036 |
| GGTTTAATTG | 1.026 ± 0.0085 |
| GGTTTAGAGA | 1.02 ± 0.069 |
| GGTTTAGCCT | 1.04 ± 0.023 |
| GGTTTAGCTG | 0.984 ± 0.041 |
| GGTTTAGTTG | 0.9744 ± 0.0062 |
| GGTTTAGTTT | 0.99 ± 0.035 |
| GGTTTATATA | 1.006 ± 0.0018 |
| GGTTTATCAA | 1.0008 ± 0.00076 |
| GGTTTATCAG | 0.983 ± 0.021 |
| GGTTTATTAT | 1.02 ± 0.017 |
| GGTTTCAGCA | 1.01 ± 0.042 |
| GGTTTCCGGG | 1.01 ± 0.035 |
| GGTTTCCTGT | 1.01 ± 0.043 |
| GGTTTCGTTG | 1 ± 0.046 |
| GGTTTGAGAA | 1.018 ± 0.0031 |
| GGTTTGAGAG | 0.989 ± 0.048 |
| GGTTTGATGC | 0.962 ± 0.055 |

| Sequence | switch fluorescence ratio |
| --- | --- |
| GGTTTGCACG | 0.992 ± 0.042 |
| GGTTTGGATC | 1.02 ± 0.018 |
| GGTTTGGTCG | 1.01 ± 0.037 |
| GGTTTGGTGG | 0.992 ± 0.028 |
| GGTTTGGTTC | 0.957 ± 0.083 |
| GGTTTGGTTG | 1.003 ± 0.008 |
| GGTTTGGTTT | 1 ± 0.021 |
| GGTTTGTAGG | 0.954 ± 0.02 |
| GGTTTGTGCT | 0.94 ± 0.051 |
| GGTTTGTGGT | 1.03 ± 0.062 |
| GGTTTGTTTG | 0.999 ± 0.025 |
| GGTTTTCACC | 0.9866 ± 0.0065 |
| GGTTTTCGAA | 1.01 ± 0.042 |
| GGTTTTCGGG | 0.969 ± 0.035 |
| GGTTTTCTGT | 0.997 ± 0.016 |
| GGTTTTGATT | 0.998 ± 0.0089 |
| GGTTTTGGGA | 0.998 ± 0.019 |
| GGTTTTGTGC | 1.03 ± 0.091 |
| GGTTTTTCGA | 0.983 ± 0.034 |
| GGTTTTTCGC | 1.028 ± 0.0029 |
| GGTTTTTGGG | 0.994 ± 0.033 |
| GGTTTTTGGT | 1 ± 0.032 |

| Sequence | switch fluorescence ratio |
| --- | --- |
| GGTTTTTGTT | 0.991 ± 0.039 |
| GGTTTTTTTG | 1.02 ± 0.037 |
| GTAAAAGCTC | 1.02 ± 0.018 |
| GTAAAAGGGT | 1 ± 0.02 |
| GTAAAAGTCG | 1.03 ± 0.015 |
| GTAAAATTGG | 0.998 ± 0.025 |
| GTAAGAAGGA | 1.02 ± 0.07 |
| GTAAGAGCGG | 0.9983 ± 0.0065 |
| GTAAGCAAAG | 1.2 ± 0.081 |
| GTAAGGAGGG | 0.981 ± 0.032 |
| GTAAGGGAAT | 0.9718 ± 0.0065 |
| GTAAGGGATT | 1.025 ± 0.0068 |
| GTAAGGGGGA | 0.984 ± 0.031 |
| GTAAGGGGGC | 0.984 ± 0.011 |
| GTAAGTACTG | 1.36 ± 0.015 |
| GTAATAGGAG | 1.02 ± 0.039 |
| GTAATCGATT | 1.07 ± 0.022 |
| GTAATGATCT | 1.06 ± 0.036 |
| GTAATTAATT | 0.978 ± 0.025 |
| GTAATTGCTG | 1.01 ± 0.059 |
| GTAATTGGGT | 0.986 ± 0.015 |
| GTAATTTCGT | 0.99733 ± 0.0004 |

| Sequence | switch fluorescence ratio |
| --- | --- |
| GTACCATCTG | 0.976 ± 0.02 |
| GTACCCTCAA | 1.03 ± 0.024 |
| GTACCCTGGA | 1.03 ± 0.03 |
| GTACCTAACT | 1.2 ± 0.025 |
| GTACGAGTCC | 1.01 ± 0.015 |
| GTACGGGGGA | 1.002 ± 0.0056 |
| GTACTACCTA | 1.14 ± 0.022 |
| GTACTATTAT | 1.038 ± 0.0052 |
| GTACTATTTT | 1.036 ± 0.0037 |
| GTACTTCATC | 1.06 ± 0.058 |
| GTAGAATGTG | 0.983 ± 0.03 |
| GTAGAGAGGG | 0.992 ± 0.053 |
| GTAGATTGG | 0.9872 ± 0.0035 |
| GTAGCAGGCG | 1.13 ± 0.058 |
| GTAGCATATT | 1.49 ± 0.011 |
| GTAGCGATAG | 4.13 ± 2.2 |
| GTAGCGCGTC | 1.03 ± 0.026 |
| GTAGCTGGTG | 1.02 ± 0.018 |
| GTAGCTTATC | 2.08 ± 0.067 |
